Bridges are numbered along the chain shown (N, C = ends). Where no end group is shown, it is not given here. [ ]: non-standard residue; d: D form. The star is where a group is joined. Acetyl(2-(4-imidazolyl)) = O=C(Cc1c[nH]cn1)*; Aib = CC(C)(N)C(=O)O
Tests used:
Assay in all cases: cell-based or functional assay
[1] = molecular target: human GCG receptor (human, UniProt P47871 26-477)
[2] = molecular target: T1, human GIP receptor (human, UniProt P48546 22-466)
T1 sequence (looked up): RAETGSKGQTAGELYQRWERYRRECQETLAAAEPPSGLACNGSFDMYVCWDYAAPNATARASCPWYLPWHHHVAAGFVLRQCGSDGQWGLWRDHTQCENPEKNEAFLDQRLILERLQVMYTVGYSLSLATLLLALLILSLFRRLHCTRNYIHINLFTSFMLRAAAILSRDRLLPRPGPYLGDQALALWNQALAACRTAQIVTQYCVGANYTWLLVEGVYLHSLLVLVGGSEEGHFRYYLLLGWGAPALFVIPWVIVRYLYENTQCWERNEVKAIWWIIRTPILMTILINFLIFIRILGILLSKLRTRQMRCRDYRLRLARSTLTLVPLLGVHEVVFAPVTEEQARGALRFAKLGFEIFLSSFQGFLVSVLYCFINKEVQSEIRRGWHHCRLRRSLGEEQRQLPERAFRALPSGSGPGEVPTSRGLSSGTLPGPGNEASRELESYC

[3] = molecular target: human GLP-1 receptor (human, UniProt P43220 24-463)

Sequence of human GCG receptor (P47871 26-477): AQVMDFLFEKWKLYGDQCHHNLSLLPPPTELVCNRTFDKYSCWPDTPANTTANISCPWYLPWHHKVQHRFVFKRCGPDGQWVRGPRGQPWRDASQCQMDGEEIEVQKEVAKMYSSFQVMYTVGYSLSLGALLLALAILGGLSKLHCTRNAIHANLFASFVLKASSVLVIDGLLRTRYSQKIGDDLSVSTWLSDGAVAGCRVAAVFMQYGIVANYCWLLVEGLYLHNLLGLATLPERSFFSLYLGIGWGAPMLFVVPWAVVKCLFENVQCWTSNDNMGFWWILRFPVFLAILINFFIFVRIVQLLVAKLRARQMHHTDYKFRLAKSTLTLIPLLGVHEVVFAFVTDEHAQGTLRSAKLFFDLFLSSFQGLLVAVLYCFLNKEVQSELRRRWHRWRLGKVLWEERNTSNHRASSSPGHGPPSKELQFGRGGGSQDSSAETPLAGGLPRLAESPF

Binder	In vitro activity compared with native peptide (%) vs. Glucagon [1] [%]	In vitro activity compared with native peptide (%) vs. GIP [2] [%]	In vitro activity compared with native peptide (%) vs. GLP-1 [3] [%]
Y[Aib]QGTFTSDYSKYLDECAAKDFVQWLLDHHPSSGQPPPS (also: ring formation, positions not given here) [Triple agonist of SEQ ID NO: 67]	46.2	39.8	28.5
Y[Aib]QGTFTSDYSKYLDEKAAKEFVQWLLDHHPSSGQPPPSC (bridge 16-20) [Triple agonist of SEQ ID NO: 75]	8.5	18	35.1
Y[Aib]QGTFTSDYSKCLDEKAAKEFVQWLLDHHPSSGQPPPS (bridge 16-20) [Triple agonist of SEQ ID NO: 68]	8.8	107	27.9
H[Aib]QGTFTSDYSKYLDEKRQKEFVQWLLDTKC (bridge 16-20) [Triple agonist of SEQ ID NO: 78]	14	0.12	51
{Acetyl(2-(4-imidazolyl))}-[Aib]QGTFTSDYSKYLDEKRQKEFVQWLLNTC (bridge 15-19) [Triple agonist of SEQ ID NO: 81]	0.3	< 0.1	7.8
{Acetyl(2-(4-imidazolyl))}-[Aib]QGTFTSDYSIAMDEIACKDFVNWLLNTK (bridge 15-19) [Triple agonist of SEQ ID NO: 61]	< 0.1	2.8	59.8
Y[Aib]QGTFTSDYSKYLDECAAKEFVQWLLDHHPSSGQPPPS (bridge 16-20) [Triple agonist of SEQ ID NO: 64]	60.1	92.9	64.6
H[Aib]EGTFTSDYSIAMDEIHQKDFVDWLLAEKC (bridge 16-20) [Triple agonist of SEQ ID NO: 80]	0	0.1	8.1
Y[Aib]QGTFTSDCSKYLDERAAKDFVQWLLDHHPSSGQPPPS (bridge 16-20) [Triple agonist of SEQ ID NO: 72]	1	1.6	11.5
Y[Aib]QGTFTSDYSKCLDEKRAKDFVQWLLDHHPSSGQPPPS (bridge 16-20) [Triple agonist of SEQ ID NO: 70]	71.3	64.4	15.1
{Acetyl(2-(4-imidazolyl))}-[Aib]QGTFTSDYSKCLDEKRAKEFVQWLLDHHPSSGQPPPS (bridge 15-19) [Triple agonist of SEQ ID NO: 74]	0.9	1	12.9
Y[Aib]QGTFTSDYSKCLDERAAKEFVQWLLDHHPSSGQPPPS (bridge 16-20) [Triple agonist of SEQ ID NO: 69]	9.6	62.8	24.3
Y[Aib]QGTFTSDYSKYLDECRAKDFVQWLLDHHPSSGQPPPS (bridge 16-20) [Triple agonist of SEQ ID NO: 66]	172	17.2	15.8
{Acetyl(2-(4-imidazolyl))}-[Aib]QGTFTSDYSKYLDECRAKEFVQWLLDHHPSSGQPPPS (bridge 15-19) [Triple agonist of SEQ ID NO: 73]	5.4	3	22.6
H[Aib]QGTFTSDVSKYLDGQAAQEFVAWLLKGC [Triple agonist of SEQ ID NO: 8]	0.1	< 0.1	14.2
H[Aib]QGTFTSDVSKYLDGQAAKEFVAWLLKGC [Triple agonist of SEQ ID NO: 7]	< 0.1	< 0.1	13.7
Y[Aib]QGTFTSDYSKYLDEKAAKDFVQWLLDHHPSSGQPPPSC (bridge 16-20) [Triple agonist of SEQ ID NO: 77]	12.2	35.5	38.7
Y[Aib]QGTFTSDYSKYLDEKRAKDFVQWLLDHHPSSGQPPPSC (bridge 16-20) [Triple agonist of SEQ ID NO: 76]	47.6	11.7	10.3
{Acetyl(2-(4-imidazolyl))}-[Aib]QGTFTSDCSKYLDERAAQDFVQWLLDGGPSSGAPPPS [Triple agonist of SEQ ID NO: 63]	< 0.1	< 0.1	15.3
{Acetyl(2-(4-imidazolyl))}-[Aib]QGTFTSDKSKYLDERAAQDFVQWLLDGGPSSGAPPPS [Triple agonist of SEQ ID NO: 62]	< 0.1	< 0.1	5.2
H[Aib]QGTFTSDYSKCLDEKRAKEFVQWLLDHHPSSGQPPPS (bridge 16-20) [Triple agonist of SEQ ID NO: 65]	25.2	11.6	95.4
H[Aib]EGTFTSDYSIAMDEIHQKDFVNWLLAQKC (bridge 16-20) [Triple agonist of SEQ ID NO: 79]	4.9	1.4	41.5
Y[Aib]QGTFTSDYSKYLDERACKDFVQWLLDHHPSSGQPPPS (bridge 16-20) [Triple agonist of SEQ ID NO: 71]	12.7	94.7	90.1

Source: patent publication US20240024426A1, “HYPOTENSIVE PHARMACEUTICAL COMPOSITION COMPRISING TRIPLE ACTIVATOR HAVING ACTIVITY FOR ALL OF GLUCAGON, GLP-1, AND GIP RECEPTORS” (HANMI PHARM. CO., LTD., priority 2020, published 2024)
